Consider one protein from FireProtDB (doi:10.1038/srep15545).

The term Tm denotes the temperature at the midpoint of the melting transition.

The conditions of this series: Escherichia coli (strain K12); pH 9; Thermal; DSC; Glycine 50mM; reversible: yes; whole UniProt chain shown.

B1: Divalent-cation tolerance protein CutA wild type, P69488 (protein)
chain: MLDEKSSNTASVVVLCTAPDEATAQDLAAKVLAEKLAACATLIPGATSLYYWEGKLEQEYEVQMILKTTVSHQQALLECLKSHHPYQTPELLVLPVTHGDTDYLSWLNASLR
As to B1, the Tm was 85.6 °C and the “unfolding enthalpy (calorimetric)” value is 208 kcal/mol.
